From patent US7205275 (dated 2007)
Like-named read-outs stand apart in the source and are kept apart here. Primed or numbered codes have the meaning given here. Where no end group is shown, it is not given here. [ ]: non-standard residue; d: D form. mPEG 5K = methoxy-PEG 5 kDa coupled via the N-terminal cysteine; Fc = immunoglobulin Fc domain fused to the peptide (peptibody); Fc″ = Fc domain of the peptibody fusion

T1: mouse Ang-1 (mouse, UniProt O08538)
T1 chain: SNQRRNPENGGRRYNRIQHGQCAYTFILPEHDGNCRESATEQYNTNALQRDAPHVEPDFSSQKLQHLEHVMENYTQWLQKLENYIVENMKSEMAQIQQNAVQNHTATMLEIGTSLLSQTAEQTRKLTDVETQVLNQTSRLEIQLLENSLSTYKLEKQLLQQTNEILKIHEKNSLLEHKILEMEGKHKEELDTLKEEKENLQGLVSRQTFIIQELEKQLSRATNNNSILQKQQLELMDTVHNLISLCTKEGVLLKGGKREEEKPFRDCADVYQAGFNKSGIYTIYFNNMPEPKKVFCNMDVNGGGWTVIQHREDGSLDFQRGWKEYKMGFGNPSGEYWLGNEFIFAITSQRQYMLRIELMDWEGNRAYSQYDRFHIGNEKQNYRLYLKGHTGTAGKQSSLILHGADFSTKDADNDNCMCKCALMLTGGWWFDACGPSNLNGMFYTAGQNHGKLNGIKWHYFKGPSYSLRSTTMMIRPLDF

T2: cAng-2 (UniProt O15123)
T2 chain: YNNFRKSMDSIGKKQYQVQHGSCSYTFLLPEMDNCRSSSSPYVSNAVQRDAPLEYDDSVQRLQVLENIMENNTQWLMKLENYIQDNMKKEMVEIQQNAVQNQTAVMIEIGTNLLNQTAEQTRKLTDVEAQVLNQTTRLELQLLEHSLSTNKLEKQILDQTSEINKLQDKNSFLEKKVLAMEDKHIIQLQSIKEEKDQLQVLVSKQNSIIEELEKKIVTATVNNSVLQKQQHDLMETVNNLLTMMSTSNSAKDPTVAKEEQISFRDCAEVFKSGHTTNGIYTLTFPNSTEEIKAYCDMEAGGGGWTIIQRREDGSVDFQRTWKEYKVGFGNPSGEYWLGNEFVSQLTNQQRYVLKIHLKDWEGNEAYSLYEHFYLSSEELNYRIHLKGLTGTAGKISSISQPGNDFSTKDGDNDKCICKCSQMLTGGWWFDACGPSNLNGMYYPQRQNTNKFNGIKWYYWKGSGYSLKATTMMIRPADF

T3: rat Ang-2 (rAng-2) (rat, UniProt O35462)
T3 chain: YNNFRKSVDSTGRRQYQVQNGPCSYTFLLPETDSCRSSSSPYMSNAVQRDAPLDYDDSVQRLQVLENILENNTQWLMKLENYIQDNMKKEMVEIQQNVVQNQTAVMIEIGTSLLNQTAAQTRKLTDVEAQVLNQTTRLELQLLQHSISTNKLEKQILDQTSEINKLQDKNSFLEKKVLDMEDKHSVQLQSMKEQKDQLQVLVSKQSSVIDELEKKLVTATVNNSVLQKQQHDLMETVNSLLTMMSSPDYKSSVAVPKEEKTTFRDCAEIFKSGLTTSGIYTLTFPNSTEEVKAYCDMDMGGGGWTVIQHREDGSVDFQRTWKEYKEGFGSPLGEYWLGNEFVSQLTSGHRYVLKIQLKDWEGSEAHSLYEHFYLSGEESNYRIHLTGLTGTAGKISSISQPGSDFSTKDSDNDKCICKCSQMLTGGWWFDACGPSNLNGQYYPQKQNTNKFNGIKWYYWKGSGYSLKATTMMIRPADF

B1: human Ang-1 (protein)
chain: SNQRRSPENSGRRYNRIQHGQCAYTFILPEHDGNCRESTTDQYNTNALQRDAPHVEPDFSSQKLQHLEHVMENYTQWLQKLENYIVENMKSEMAQIQQNAVQNHTATMLEIGTSLLSQTAEQTRKLTDVETQVLNQTSRLEIQLLENSLSTYKLEKQLLQQTNEILKIHEKNSLLEHKILEMEGKHKEELDTLKEEKENLQGLVTRQTYIIQELEKQLNRATTNNSVLQKQQLELMDTVHNLVNLCTKEGVLLKGGKREEEKPFRDCADVYQAGFNKSGIYTIYINNMPEPKKVFCNMDVNGGGWTVIQHREDGSLDFQRGWKEYKMGFGNPSGEYWLGNEFIFAITSQRQYMLRIELMDWEGNRAYSQYDRFHIGNEKQNYRLYLKGHTGTAGKQSSLILHGADFSTKDADNDNCMCKCALMLTGGWWFDACGPSNLNGMFYTAGQNHGKLNGIKWHYFKGPSYSLRSTTMMIRPLDF
B2: mouse Ang-2 (protein)
chain: YSNFRKSVDSTGRRQYQVQNGPCSYTFLLPETDSCRSSSSPYMSNAVQRDAPLDYDDSVQRLQVLENILENNTQWLMKLENYIQDNMKKEMVEIQQNVVQNQTAVMIEIGTSLLNQTAAQTRKLTDVEAQVLNQTTRLELQLLQHSISTNKLEKQILDQTSEINKLQNKNSFLEQKVLDMEGKHSEQLQSMKEQKDELQVLVSKQSSVIDELEKKLVTATVNNSLLQKQQHDLMETVNSLLTMMSSPNSKSSVAIRKEEQTTFRDCAEIFKSGLTTSGIYTLTFPNSTEEIKAYCDMDVGGGGWTVIQHREDGSVDFQRTWKEYKEGFGSPLGEYWLGNEFVSQLTGQHRYVLKIQLKDWEGNEAHSLYDHFYLAGEESNYRIHLTGLTGTAGKISSISQPGSDFSTKDSDNDKCICKCSQMLSGGWWFDACGPSNLNGQYYPQKQNTNKFNGIKWYYWKGSGYSLKATTMMIRPADF
B3: human Ang-2 (protein)
chain: YNNFRKSMDSIGKKQYQVQHGSCSYTFLLPEMDNCRSSSSPYVSNAVQRDAPLEYDDSVQRLQVLENIMENNTQWLMKLENYIQDNMKKEMVEIQQNAVQNQTAVMIEIGTNLLNQTAEQTRKLTDVEAQVLNQTTRLELQLLEHSLSTNKLEKQILDQTSEINKLQDKNSFLEKKVLAMEDKHIIQLQSIKEEKDQLQVLVSKQNSIIEELEKKIVTATVNNSVLQKQQHDLMETVNNLLTMMSTSNSAKDPTVAKEEQISFRDCAEVFKSGHTTNGIYTLTFPNSTEEIKAYCDMEAGGGGWTIIQRREDGSVDFQRTWKEYKVGFGNPSGEYWLGNEFVSQLTNQQRYVLKIHLKDWEGNEAYSLYEHFYLSSEELNYRIHLKGLTGTAGKISSISQPGNDFSTKDGDNDKCICKCSQMLTGGWWFDACGPSNLNGMYYPQRQNTNKFNGIKWYYWKGSGYSLKATTMMIRPADF

Key:
[1] = molecular target: Negative Control Peptibody 4883; experiment: ELISA
human Ang-2 [2] = molecular target: B3; experiment: competition ELISA vs Tie-2
mouse Ang-1 = molecular target: T1, mouse Ang-1; experiment: competition ELISA vs Tie-2
cAng-2 = molecular target: T2, cAng-2; experiment: competition ELISA vs Tie-2
human Ang-1 = molecular target: B1; experiment: competition ELISA vs Tie-2
mouse Ang-2 [3] = molecular target: B2; experiment: competition ELISA vs Tie-2
human Ang-2 [4] = molecular target: B3; experiment: SPR
human Ang-2 [5] = molecular target: B3; experiment: competition ELISA vs Tie-2
mouse Ang-2 [6] = molecular target: B2; experiment: competition ELISA vs Tie-2
human Ang-2 [7] = molecular target: B3; experiment: competition ELISA vs Tie-2
rat Ang-2 (rAng-2) = molecular target: T3, rat Ang-2 (rAng-2); experiment: competition ELISA vs Tie-2
human Ang-2 [8] = molecular target: B3; experiment: competition ELISA vs Tie-2
[9] = molecular target: Negative Control Peptibody 4883; experiment: ELISA; remark: listed apart in the source
[10] = molecular target: Negative Control Peptibody 4883; experiment: ELISA; remark: listed apart in the source

| IC50 (mouse Ang-1) [nM] | IC50 (cAng-2) [nM] | IC50 (human Ang-1) [nM] | IC50 (mouse Ang-2 [3]) [nM] | Kd (human Ang-2 [4]) [nM] | IC50 (human Ang-2 [7]) [nM] | IC50 (rat Ang-2 (rAng-2)) [nM] | Binder | further results |
| --- | --- | --- | --- | --- | --- | --- | --- | --- |
| – | – | – | – | – | – | – | B1 | binding result [1]: no binding |
| – | – | – | – | – | – | – | CGGGGGAQTNFMPMDDLEQRLYEQFILQQGLE (not fully specified (residue 1); printed as C-GGGGG-AQ-TNFMPMDDLEQRLYEQFILQQG-LE; also: dimer linked by PEG 3.4K via N-terminal Cys) [PEG3.4K(L1-7 Peptide)2] | IC50 (human Ang-2 [2]): 0.058 nM |
| – | – | – | – | – | – | – | C(mPEG 5K)GGGGGAQTNFMPMDDLEQRLYEQFILQQGLE [mPEG5K-(L1-7 Peptide)] | IC50 (human Ang-2 [2]): 11.7 nM |
| 300 | 0.54 | 200 | 0.289 | 0.38 | 0.197 | 0.236 | M[Fc]GGGGGAQQEECEWDPWTCEHMLE (not fully specified (bridges); printed as M-Fc-GGGGGAQQEECEWDPWTCEHMLE; cysteine pairing not given here; also: Fc fusion domain at position 2) [Con4 (C)] | IC50 (human Ang-2 [5]): 0.2 nM; IC50 (mouse Ang-2 [6]): 0.3 nM |
| > 1000 | 0.608 | > 1000 | 0.249 | 0.24 | 0.179 | 0.204 | MGAQHTFQPLDELEETLYYQWLYDQLLEGGGGG-{Fc″} [L1-21 (N)] | IC50 (human Ang-2 [8]): 0.17 nM |
| – | – | – | – | – | – | – | B2 | binding result [9]: no binding |
| – | – | – | – | – | – | – | B3 | binding result [10]: no binding |
| > 1000 | 0.108 | > 1000 | 0.063 | 0.24 | 0.046 | 0.035 | MGAQTNFMPMDDLEQRLYEQFILQQGLEGGGGG-Fc [L1-7 (N)] | IC50 (human Ang-2 [8]): 0.03 nM |
